Reference: the Human Domainome abundance scans (Beltran et al. 2025)
± gives the uncertainty stated by the source.

B1: POU domain, class 2, transcription factor 3, residues 186 to 260; numbered along this chain, Q9UKI9 (parent)
chain: SDLEELEKFAKTFKQRRIKLGFTQGDVGLAMGKLYGNDFSQTTISRFEALNLSFKNMCKLKPLLEKWLNDAESSP

Variants of: B1
Test: abundance fitness (aPCA) (normalised: wild type 0, dead -1); higher = more abundant; growth selection in yeast, the domain comes from the species named
Settings: Homo sapiens

In order of rising abundance fitness:
1. SDLEELEKFAKTFKQRRIKLGFTQGDVGLAMGKLYGNDFSQTTISRFEALNLSFKNECKLKPLLEKWLNDAESSP [M57E]  -0.814 ± 0.09
2. SDLEELEKFAKTFKQRRIKLGFTQGDVGLAMGKLYGNDFSQTTISRFEALNLSFKNHCKLKPLLEKWLNDAESSP [M57H]  -0.811 ± 0.29
3. SDLEELEKFAKTFKQRRIKLGFTQGDVGLAMGKLYGNDFSQTTISRFEALNLSFKNPCKLKPLLEKWLNDAESSP [M57P]  -0.8 ± 0.12
4. SDLEELEKFAKTFKQRRIKLGFTQGDVGLAMGKLYGNDFSQTTISRFEALNLSFKNRCKLKPLLEKWLNDAESSP [M57R]  -0.608 ± 0.044
5. SDLEELEKFAKTFKQRRIKLGFTQGDVGLAMGKLYGNDFSQTTISRFEALNLSFKNYCKLKPLLEKWLNDAESSP [M57Y]  -0.496 ± 0.12
6. SDLEELEKFAKTFKQRRIKLGFTQGDVGLAMGKLYGNDFSQTTISRFEALNLSFKNMPKLKPLLEKWLNDAESSP [C58P]  -0.474 ± 0.083
7. SDLEELEKFAKTFKQRRIKLGFTQGDVGLAMGKLYGNDFSQTTISRFEALNLSFKNKCKLKPLLEKWLNDAESSP [M57K]  -0.396 ± 0.064
8. SDLEELEKFAKTFKQRRIKLGFTQGDVGLAMGKLYGNDFSQTTISRFEALNLSFKNQCKLKPLLEKWLNDAESSP [M57Q]  -0.318 ± 0.077
9. SDLEELEKFAKTFKQRRIKLGFTQGDVGLAMGKLYGNDFSQTTISRFEALNLSFKNICKLKPLLEKWLNDAESSP [M57I]  -0.305 ± 0.097
10. SDLEELEKFAKTFKQRRIKLGFTQGDVGLAMGKLYGNDFSQTTISRFEALNLSFKNWCKLKPLLEKWLNDAESSP [M57W]  -0.27 ± 0.043
11. SDLEELEKFAKTFKQRRIKLGFTQGDVGLAMGKLYGNDFSQTTISRFEALNLSFKNTCKLKPLLEKWLNDAESSP [M57T]  -0.25 ± 0.042
12. SDLEELEKFAKTFKQRRIKLGFTQGDVGLAMGKLYGNDFSQTTISRFEALNLSFKNFCKLKPLLEKWLNDAESSP [M57F]  -0.222 ± 0.14
13. SDLEELEKFAKTFKQRRIKLGFTQGDVGLAMGKLYGNDFSQTTISRFEALNLSFKNVCKLKPLLEKWLNDAESSP [M57V]  -0.202 ± 0.034
14. SDLEELEKFAKTFKQRRIKLGFTQGDVGLAMGKLYGNDFSQTTISRFEALNLSFKNGCKLKPLLEKWLNDAESSP [M57G]  -0.172 ± 0.032
15. SDLEELEKFAKTFKQRRIKLGFTQGDVGLAMGKLYGNDFSQTTISRFEALNLSFKNNCKLKPLLEKWLNDAESSP [M57N]  -0.167 ± 0.095
16. SDLEELEKFAKTFKQRRIKLGFTQGDVGLAMGKLYGNDFSQTTISRFEALNLSFKNMTKLKPLLEKWLNDAESSP [C58T]  -0.09 ± 0.054
17. SDLEELEKFAKTFKQRRIKLGFTQGDVGLAMGKLYGNDFSQTTISRFEALNLSFKNMKKLKPLLEKWLNDAESSP [C58K]  -0.058 ± 0.068
18. SDLEELEKFAKTFKQRRIKLGFTQGDVGLAMGKLYGNDFSQTTISRFEALNLSFKNMHKLKPLLEKWLNDAESSP [C58H]  -0.052 ± 0.13
19. SDLEELEKFAKTFKQRRIKLGFTQGDVGLAMGKLYGNDFSQTTISRFEALNLSFKNMDKLKPLLEKWLNDAESSP [C58D]  -0.04 ± 0.051
20. SDLEELEKFAKTFKQRRIKLGFTQGDVGLAMGKLYGNDFSQTTISRFEALNLSFKNMCDLKPLLEKWLNDAESSP [K59D]  -0.039 ± 0.055
21. SDLEELEKFAKTFKQRRIKLGFTQGDVGLAMGKLYGNDFSQTTISRFEALNLSFKNMEKLKPLLEKWLNDAESSP [C58E]  -0.039 ± 0.046
22. SDLEELEKFAKTFKQRRIKLGFTQGDVGLAMGKLYGNDFSQTTISRFEALNLSFKNMGKLKPLLEKWLNDAESSP [C58G]  -0.031 ± 0.029
23. SDLEELEKFAKTFKQRRIKLGFTQGDVGLAMGKLYGNDFSQTTISRFEALNLSFKNLCKLKPLLEKWLNDAESSP [M57L]  -0.021 ± 0.033
24. SDLEELEKFAKTFKQRRIKLGFTQGDVGLAMGKLYGNDFSQTTISRFEALNLSFKNSCKLKPLLEKWLNDAESSP [M57S]  -0.02 ± 0.047
25. SDLEELEKFAKTFKQRRIKLGFTQGDVGLAMGKLYGNDFSQTTISRFEALNLSFKNMLKLKPLLEKWLNDAESSP [C58L]  -0.02 ± 0.033
26. SDLEELEKFAKTFKQRRIKLGFTQGDVGLAMGKLYGNDFSQTTISRFEALNLSFKNMVKLKPLLEKWLNDAESSP [C58V]  -0.019 ± 0.033
27. SDLEELEKFAKTFKQRRIKLGFTQGDVGLAMGKLYGNDFSQTTISRFEALNLSFKNMCALKPLLEKWLNDAESSP [K59A]  -0.013 ± 0.03
28. SDLEELEKFAKTFKQRRIKLGFTQGDVGLAMGKLYGNDFSQTTISRFEALNLSFKNMMKLKPLLEKWLNDAESSP [C58M]  -0.005 ± 0.045
29. SDLEELEKFAKTFKQRRIKLGFTQGDVGLAMGKLYGNDFSQTTISRFEALNLSFKNMNKLKPLLEKWLNDAESSP [C58N]  -0.005 ± 0.067
30. SDLEELEKFAKTFKQRRIKLGFTQGDVGLAMGKLYGNDFSQTTISRFEALNLSFKNMRKLKPLLEKWLNDAESSP [C58R]  0 ± 0.028
31. SDLEELEKFAKTFKQRRIKLGFTQGDVGLAMGKLYGNDFSQTTISRFEALNLSFKNMFKLKPLLEKWLNDAESSP [C58F]  0.005 ± 0.06
32. SDLEELEKFAKTFKQRRIKLGFTQGDVGLAMGKLYGNDFSQTTISRFEALNLSFKNMIKLKPLLEKWLNDAESSP [C58I]  0.01 ± 0.055
33. SDLEELEKFAKTFKQRRIKLGFTQGDVGLAMGKLYGNDFSQTTISRFEALNLSFKNMSKLKPLLEKWLNDAESSP [C58S]  0.026 ± 0.037
34. SDLEELEKFAKTFKQRRIKLGFTQGDVGLAMGKLYGNDFSQTTISRFEALNLSFKNMAKLKPLLEKWLNDAESSP [C58A]  0.027 ± 0.036
35. SDLEELEKFAKTFKQRRIKLGFTQGDVGLAMGKLYGNDFSQTTISRFEALNLSFKNMWKLKPLLEKWLNDAESSP [C58W]  0.032 ± 0.035
36. SDLEELEKFAKTFKQRRIKLGFTQGDVGLAMGKLYGNDFSQTTISRFEALNLSFKNMCELKPLLEKWLNDAESSP [K59E]  0.053 ± 0.037
37. SDLEELEKFAKTFKQRRIKLGFTQGDVGLAMGKLYGNDFSQTTISRFEALNLSFKNMCFLKPLLEKWLNDAESSP [K59F]  0.06 ± 0.065
